This note sets out measurements from article PMC10612264, “A novel transcriptional repressor specifically regulates xylanase gene 1 in Trichoderma reesei”.

For series [1], the target named is T1, XTR1 DBD (Trichoderma reesei QM9414) (UniProt G0RH11).
T1 sequence: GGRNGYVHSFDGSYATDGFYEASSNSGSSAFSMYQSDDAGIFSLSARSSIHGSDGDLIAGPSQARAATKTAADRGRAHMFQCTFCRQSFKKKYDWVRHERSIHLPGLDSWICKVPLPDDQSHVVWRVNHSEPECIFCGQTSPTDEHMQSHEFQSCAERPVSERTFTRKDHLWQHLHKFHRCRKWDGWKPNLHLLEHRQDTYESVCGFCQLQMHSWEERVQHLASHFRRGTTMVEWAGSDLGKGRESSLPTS
The series is described as follows: EMSA. To be noted: EMSA: 10 mM Tris pH 7.5, 50 mM KCl, 1 mM DTT, 150 ng DNA, 20 C 30 min, 6% native PAGE at 4 C in 0.5x TBE, EtBr; footprinting: 180 ng DNA, 25 C 30 min.

Series [2] deals with T2, XYR1 DBD (Trichoderma reesei) (UniProt G0RLE8).
T2 sequence: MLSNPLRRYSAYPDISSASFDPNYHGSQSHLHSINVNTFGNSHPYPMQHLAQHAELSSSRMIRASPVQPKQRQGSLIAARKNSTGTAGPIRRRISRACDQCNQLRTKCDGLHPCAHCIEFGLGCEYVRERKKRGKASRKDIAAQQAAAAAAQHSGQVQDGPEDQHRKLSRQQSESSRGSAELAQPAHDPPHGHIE
Put plainly: EMSA. Conditions: EMSA: 10 mM Tris pH 7.5, 50 mM KCl, 1 mM DTT, 150 ng DNA, 20 C 30 min, 6% native PAGE at 4 C in 0.5x TBE, EtBr; footprinting: 180 ng DNA, 25 C 30 min. (A gel shift assay detects complexes by their altered migration in electrophoresis.)

For series [3], the target named is T3, XTR1 DBD (Trichoderma reesei QM9414, UniProt G0RH11 285-535).
T3 sequence: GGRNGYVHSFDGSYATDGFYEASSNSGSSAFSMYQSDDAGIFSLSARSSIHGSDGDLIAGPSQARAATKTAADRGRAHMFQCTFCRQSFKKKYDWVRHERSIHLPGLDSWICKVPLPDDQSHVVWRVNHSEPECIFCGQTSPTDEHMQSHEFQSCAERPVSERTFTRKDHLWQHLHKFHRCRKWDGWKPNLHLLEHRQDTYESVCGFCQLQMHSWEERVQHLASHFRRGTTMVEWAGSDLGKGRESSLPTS
Put plainly: EMSA; EMSA: 10 mM Tris pH 7.5, 50 mM KCl, 1 mM DTT, 150 ng DNA, 20 C 30 min, 6% native PAGE at 4 C in 0.5x TBE, EtBr; footprinting: 180 ng DNA, 25 C 30 min. To be noted: protein: recombinant; tags: His tag (pET22b NdeI/XhoI, Ni-NTA); label: none (EtBr stain).

Series [4] has as its target T3, XTR1 DBD. The series is described as follows: EMSA; binding increased vs wild type; EMSA: 10 mM Tris pH 7.5, 50 mM KCl, 1 mM DTT, 150 ng DNA, 20 C 30 min, 6% native PAGE at 4 C in 0.5x TBE, EtBr; footprinting: 180 ng DNA, 25 C 30 min. To be noted: protein: recombinant; tags: His tag (pET22b NdeI/XhoI, Ni-NTA); label: none (EtBr stain).

In the case of “AAGCTTCGAGGATACTGTACGAGCCGCTTTCAACCTCACTTGATGATGTCTGAGTTTCATCAAGAGAATTGAAGTCAAAGCTCAAATCATGATGTGAAGAGGTTTTGAATGTGGAAGAATTCTGCATA (double strand) [Pxyn1 (-217 to -91)]”, in series [1], the binding result is on record as “no binding”.
The same measure, in the same setting: as for “AACTAGGACCGGCTTGTGTCGATATTGCGGGTGGCGTTCAATCTATTCCGGCACTCCTATGCCGTTTGATCCGATACCTGGAGGGCGTGCTTTAGGCAAAATGCCAAGCTTCGAGGATACTGTACGAGCCGCTTTCAACCTCACTTGATGATGTCTGAGTTTCATCAAGAGAATTGAAGTCAAAGCTCAAATCATGATGTGAAGAGGTTTTGAATGTGGAAGAATTCTGCATA (double strand) [Pxyn1 (-321 to -91)]”, the entry is “binds”.
In the case of “AACTAGGACCGGCTTGTGTCGATATTGCGGGTGGCGTTCAATCTATTCCGGCACTCCTATGCCGTTTGATCCGATACCTGGAGGGCGTGCTTTAGGCAAAATGCC (double strand) [Pxyn1 (-321 to -217)]”, the binding entry in series [1] and in series [2] was “binds” each time.

B1: Pxyn1 (-321 to -217) GG2-3 to AA (dsDNA)
DNA 1: AACTAGGACCGGCTTGTGTCGATATTGCGGGTGGCGTTCAATCTATTCCGGCACTCCTATGCCGTTTGATCCGATACCTAAAGGGCGTGCTTTAGGCAAAATGCC
DNA 2: GGCATTTTGCCTAAAGCACGCCCTTTAGGTATCGGATCAAACGGCATAGGAGTGCCGGAATAGATTGAACGCCACCCGCAATATCGACACAAGCCGGTCCTAGTT
Take B1: the binding result in the series with XTR1 DBD [3] is on record as “binds”.

B2: Pxyn1 (-321 to -217) CGTGC8-12 to TTGTT (dsDNA)
DNA 1: AACTAGGACCGGCTTGTGTCGATATTGCGGGTGGCGTTCAATCTATTCCGGCACTCCTATGCCGTTTGATCCGATACCTGGAGGGTTGTTTTTAGGCAAAATGCC
DNA 2: GGCATTTTGCCTAAAAACAACCCTCCAGGTATCGGATCAAACGGCATAGGAGTGCCGGAATAGATTGAACGCCACCCGCAATATCGACACAAGCCGGTCCTAGTT
For B2, in the series with XTR1 DBD [3], the binding result is recorded as “no binding”.

B3: Pxyn1 (-321 to -217) GGG5-7 to AAA (dsDNA)
DNA 1: AACTAGGACCGGCTTGTGTCGATATTGCGGGTGGCGTTCAATCTATTCCGGCACTCCTATGCCGTTTGATCCGATACCTGGAAAACGTGCTTTAGGCAAAATGCC
DNA 2: GGCATTTTGCCTAAAGCACGTTTTCCAGGTATCGGATCAAACGGCATAGGAGTGCCGGAATAGATTGAACGCCACCCGCAATATCGACACAAGCCGGTCCTAGTT
In the case of B3, the binding result in the series with XTR1 DBD [3] is recorded as “binds”.

B4: Pxyn1 (-321 to -217) 3' TTT to AAA (dsDNA)
DNA 1: AACTAGGACCGGCTTGTGTCGATATTGCGGGTGGCGTTCAATCTATTCCGGCACTCCTATGCCGTTTGATCCGATACCTGGAGGGCGTGCGGGAGGCAAAATGCC
DNA 2: GGCATTTTGCCTCCCGCACGCCCTCCAGGTATCGGATCAAACGGCATAGGAGTGCCGGAATAGATTGAACGCCACCCGCAATATCGACACAAGCCGGTCCTAGTT
Regarding B4, the binding result with XTR1 DBD [4] is on record as “binds”.
